Our source for the localisation_or_trafficking values is PMC7586228.

The nature of data set [1]: Golgi residence time, live imaging with CHX. Particulars: glycan lost; control: DMSO.
Data set [2] can be described thus: immunofluorescence, colocalisation with GM130. Particulars: glycan lost; control: DMSO.

On to transferrin receptor (TfR): GalNAc-O-Bn, for which the values for the localisation_or_trafficking entry in data set [1] and in data set [2] were “increases” and “changes”, respectively.
